Data reported in patent US8951758B2, “GH61 glycoside hydrolase protein variants and cofactors that enhance GH61 activity” (Codexis, Inc., priority 2011, dated 2015).

How the values were obtained:
[1] = tested on: pretreated corn stover (PCS); assay: Supplementation of CF-416 whole cellulase broth with single purified enzymes, saccharification of pretreated corn stover; format: biochemical; settings: 0.4% single enzyme added to 0.5% CF-416 whole cellulase broth base; for Fold Improvement Over Whole Cellulase Broth Tested on PCS: 74 g/L glucan, pH 5.0, 55° C., 50 μM copper
Method: (§1) In this Example, M. thermophila-produced and purified GH61a, GH61p, GH61f, GH61n, CBH1a, CBH2b, AXE3, FAE, and Xyl3, were used to supplement the activity present in culture broths (i.e., “whole broth cellulase base”) of the M. thermophila strain CF-416 prepared using standard methods known in the art. The broth cellulase base was fixed to 0.5% protein and the single purified enzyme was added at 0.4% (wt added protein/wt glucan) to the saccharification reactions. The whole cellulase broth base and individual enzymes were characterized by standard BCA assays for total protein quantification.
(§2) The saccharification reactions were carried out at 74 g/L glucan load of pretreated wheat straw (PWS) or pretreated corn stover (PCS) at pH 5.0, 55° C. at 950 rpm in the presence of 50 μM copper in high throughput (HTP) 96 deep well plates. Glucose analysis was carried out by the glucose oxidase assay as described above. In each case, the fold improvement was calculated using the formula Fold Improvement=[Total Glucose Production with addition of 0.4% single enzyme to the whole cellulase broth base]/[glucose production from the 0.5% whole cellulase broth base]. In this Table, the fold improvements were ranked from 0 to 3; fold improvements less than 1.2× are indicated by “0,” fold improvements of >1.2 to <1.5 are indicated by “1,” fold improvements of ≧1.5× to <1.7× improvements are indicated by “2,” and fold improvements ≧1.7 are indicated by “3.”

[2] = tested on: pretreated wheat straw (PWS); assay: Supplementation of CF-416 whole cellulase broth with single purified enzymes, saccharification of pretreated wheat straw; format: biochemical; settings: 0.4% single enzyme added to 0.5% CF-416 whole cellulase broth base; for Fold Improvement Over Whole Cellulase Broth Tested on PWS: 74 g/L glucan, pH 5.0, 55° C., 50 μM copper
Method: as §1, §2

| improvement over whole cellulase broth on PCS, in words [1] | improvement over whole cellulase broth on PWS, in words [2] | Fold Improvement Over Whole Cellulase Broth Tested on PCS [1] | Fold Improvement Over Whole Cellulase Broth Tested on PWS [2] | Molecule |
| --- | --- | --- | --- | --- |
| did not show any improvement | did not show any improvement |  |  | EG1b: Wild-type EG1b endoglucanase (SEQ ID NO:110) (protein, listed as Myceliophthora thermophila) MGQKTLQGLVAAAALAASVANAQQPGTFTPEVHPTLPTWKCTTSGGCVQQDTSVVLDWNYRWFHTEDGSKSCITSSGVDRTLCPDEATCAKNCFVEGVNYTSSGVETSGSSLTLRQFFKGSDGAINSVSPRVYLLGGDGNYVVLKLLGQELSFDVDVSSLPCGENAALYLSEMDATGGRNEYNTGGAEYGSGYCDAQCPVQNWNNGTLNTGRVGSCCNEMDILEANSKAEAFTPHPCIGNSCDKSGCGFNAYARGYHNYWAPGGTLDTSRPFTMITRFVTDDGTTSGKLARIERVYVQDGKKVPSAAPGGDVITADGCTSAQPYGGLSGMGDALGRGMVLALSIWNDASGYMNWLDAGSNGPCSDTEGNPSNILANHPDAHVVLSNIRWGDIGSTVDTGDGDNNGGGPNPSSTTTATATTTSSGPAEPTQTHYGQCGGKGWTGPTRCETPYTCKYQNDWYSQCL |
|  |  | 1 (fold improvements of >1.2 to <1.5) | 1 (fold improvements of >1.2 to <1.5) | CBH2b: wild-type M. thermophila CBH2b (SEQ ID NO:137) (protein, listed as Myceliophthora thermophila) MAKKLFITAALAAAVLAAPVIEERQNCGAVWTQCGGNGWQGPTCCASGSTCVAQNEWYSQCLPNSQVTSSTTPSSTSTSQRSTSTSSSTTRSGSSSSSSTTPPPVSSPVTSIPGGATSTASYSGNPFSGVRLFANDYYRSEVHNLAIPSMTGTLAAKASAVAEVPSFQWLDRNVTIDTLMVQTLSQVRALNKAGANPPYAAQLVVYDLPDRDCAAAASNGEFSIANGGAANYRSYIDAIRKHIIEYSDIRIILVIEPDSMANMVTNMNVAKCSNAASTYHELTVYALKQLNLPNVAMYLDAGHAGWLGWPANIQPAAELFAGIYNDAGKPAAVRGLATNVANYNAWSIASAPSYTSPNPNYDEKHYIEAFSPLLNSAGFPARFIVDTGRNGKQPTGQQQWGDWCNVKGTGFGVRPTANTGHELVDAFVWVKPGGESDGTSDTSAARYDYHCGLSDALQPAPEAGQWFQAYFEQLLTNANPPF |
|  |  | 0 (fold improvements less than 1.2×) | 1 (fold improvements of >1.2 to <1.5) | AXE3: wild-type M. thermophila acetylxylan esterase (SEQ ID NO:167) (protein, listed as Myceliophthora thermophila) MKLLGKLSAALALAGSRLAAAHPVFDELMRPTAPLVRPRAALQQVTNFGSNPSNTKMFIYVPDKLAPNPPIIVAIHYCTGTAQAYYSGSPYARLADQKGFIVIYPESPYSGTCWDVSSRAALTHNGGGDSNSIANMVTYTLEKYNGDASKVFVTGSSSGAMMTNVMAAAYPELFAAGIAYSGVPAGCFYSQSGGTNAWNSSCANGQINSTPQVWAKMVFDMYPEYDGPRPKMQIYHGSADGTLRPSNYNETIKQWCGVFGFDYTRPDTTQANSPQAGYTTYTWGEQQLVGIYAQGVGHTVPIRGSDDMAFFGL |
|  |  | 1 (fold improvements of >1.2 to <1.5) | 3 (fold improvements ≧1.7) | CBH1a: wild-type M. thermophila CBH1a (SEQ ID NO:128) (protein, listed as Myceliophthora thermophila) MYAKFATLAALVAGAAAQNACTLTAENHPSLTYSKCTSGGSCTSVQGSITIDANWRWTHRTDSATNCYEGNKWDTSWCSDGPSCASKCCIDGADYSSTYGITTSGNSLNLKFVTKGQYSTNIGSRTYLMESDTKYQMFQLLGNEFTFDVDVSNLGCGLNGALYFVSMDADGGMSKYSGNKAGAKYGTGYCDSQCPRDLKFINGEANVENWQSSTNDANAGTGKYGSCCSEMDVWEANNMAAAFTPHPCTVIGQSRCEGDSCGGTYSTDRYAGICDPDGCDFNSYRQGNKTFYGKGMTVDTTKKITVVTQFLKNSAGELSEIKRFYVQNGKVIPNSESTIPGVEGNSITQDWCDRQKAAFGDVTDFQDKGGMVQMGKALAGPMVLVMSIWDDHAVNMLWLDSTWPIDGAGKPGAERGACPTTSGVPAEVEAEAPNSNVIFSNIRFGPIGSTVSGLPDGGSGNPNPPVSSSTPVPSSSTTSSGSSGPTGGTGVAKHYEQCGGIGFTGPTQCESPYTCTKLNDWYSQCL |
|  |  | 1 (fold improvements of >1.2 to <1.5) | 1 (fold improvements of >1.2 to <1.5) | FAE: wild-type M. thermophila ferulic acid esterase (SEQ ID NO:170) (protein, listed as Myceliophthora thermophila) MISVPALALALLAAVQVVESASAGCGKAPPSSGTKSMTVNGKQRQYILQLPNNYDANKAHRVVIGYHWRDGSMNDVANGGFYDLRSRAGDSTIFVAPNGLNAGWANVGGEDITFTDQIVDMLKNDLCVDETQFFATGWSYGGAMSHSVACSRPDVFKAVAVIAGAQLSGCAGGTTPVAYLGIHGAADNVLPIDLGRQLRDKWLQTNGCNYQGAQDPAPGQQAHIKTTYSCSRAPVTWIGHGGGHVPDPTGNNGVKFAPQETWDFFDAAVGAAGAQSPMT |
|  |  | 0 (fold improvements less than 1.2×) | 1 (fold improvements of >1.2 to <1.5) | Xyl3: wild-type M. thermophila xylanase (SEQ ID NO:149) (protein, listed as Myceliophthora thermophila) MHSKAFLAALLAPAVSGQLNDLAVRAGLKYFGTALSESVINSDTRYAAILSDKSMFGQLVPENGMKWDATEPSRGQFNYASGDITANTAKKNGQGMRCHTMVWYSQLPSWVSSGSWTRDSLTSVIETHMNNVMGHYKGQCYAWDVINEAINDDGNSWRDNVFLRTFGTDYFALSFNLAKKADPDTKLYYNDYNLEYNQAKTDRAVELVKMVQAAGAPIDGVGFQGHLIVGSTPTRSQLATALQRFTALGLEVAYTELDIRHSSLPASSSALATQGNDFANVVGSCLDTAGCVGVTVWGFTDAHSWIPNTFPGQGDALIYDSNYNKKPAWTSISSVLAAKATGAPPASSSTTLVTITTPPPASTTASSSSSATPTSVPTQTRWGQCGGIGWTGPTQCESPWTCQKLNDWYWQCL |
|  |  | 1 (fold improvements of >1.2 to <1.5) | 1 (fold improvements of >1.2 to <1.5) | GH61f: M. thermophila GH61f (SEQ ID NO:29) (protein, listed as Myceliophthora thermophila) MKSFTLTTLAALAGNAAAHATFQALWVDGVDYGAQCARLPASNSPVTDVTSNAIRCNANPSPARGKCPVKAGSTVTVEMHQQPGDRSCSSEAIGGAHYGPVMVYMSKVSDAASADGSSGWFKVFEDGWAKNPSGGSGDDDYWGTKDLNSCCGKMNVKIPADLPSGDYLLRAEALALHTAGSAGGAQFYMTCYQLTVTGSGSASPPTVSFPGAYKATDPGILVNIHAPLSGYTVPGPAVYSGGSTKKAGSACTGCESTCAVGSGPTATVSQSPGSTATSAPGGGGGCTVQKYQQCGGQGYTGCTNCASGSTCSAVSPPYYSQCV |
| did not show any improvement | did not show any improvement |  |  | beta-xylosidase: wild-type M. thermophila beta-xylosidase (SEQ ID NO:164) (protein, listed as Myceliophthora thermophila) MFFASLLLGLLAGVSASPGHGRNSTFYNPIFPGFYPDPSCIYVPERDHTFFCASSSFNAFPGIPIHASKDLQNWKLIGHVLNRKEQLPRLAETNRSTSGIWAPTLRFHDDTFWLVTTLVDDDRPQEDASRWDNIIFKAKNPYDPRSWSKAVHFNFTGYDTEPFWDEDGKVYITGAHAWHVGPYIQQAEVDLDTGAVGEWRIIWNGTGGMAPEGPHIYRKDGWYYLLAAEGGTGIDHMVTMARSRKISSPYESNPNNPVLTNANTTSYFQTVGHSDLFHDRHGNWWAVALSTRSGPEYLHYPMGRETVMTAVSWPKDEWPTFTPISGKMSGWPMPPSQKDIRGVGPYVNSPDPEHLTFPRSAPLPAHLTYWRYPNPSSYTPSPPGHPNTLRLTPSRLNLTALNGNYAGADQTFVSRRQQHTLFTYSVTLDYAPRTAGEEAGVTAFLTQNHHLDLGVVLLPRGSATAPSLPGLSSSTTTTSSSSSRPDEEEEREAGEEEEEGGQDLMIPHVRFRGESYVPVPAPVVYPIPRAWRGGKLVLEIRACNSTHFSFRVGPDGRRSERTVVMEASNEAVSWGFTGTLLGIYATSNGGNGTTPAYFSDWRYTPLEQFRD |
| greatest benefit |  | 3 (fold improvements ≧1.7) | 2 (fold improvements of ≧1.5× to <1.7×) | GH61p: M. thermophila GH61p (SEQ ID NO:70; alternative SEQ ID NO:73) (protein, listed as Myceliophthora thermophila) MKLTSSLAVLAAAGAQAHYTFPRAGTGGSLSGEWEVVRMTENHYSHGPVTDVTSPEMTCYQSGVQGAPQTVQVKAGSQFTFSVDPSIGHPGPLQFYMAKVPSGQTAATFDGTGAVWFKIYQDGPNGLGTDSITWPSAGKTEVSVTIPSCIEDGEYLLRVEHTPLPTAPAAQNRARSSPSPAAYKATDPGILFQLYWPIPTEYINPGPAPVSC |
|  |  | 1 (fold improvements of >1.2 to <1.5) | 1 (fold improvements of >1.2 to <1.5) | GH61n: M. thermophila GH61n (SEQ ID NO:62; alternative SEQ ID NO:64) (protein, listed as Myceliophthora thermophila) MTKNAQSKQGVENPTSGDIRCYTSQTAANVVTVPAGSTIHYISTQQINHPGPTQYYLAKVPPGSSAKTFDGSGAVWFKISTTMPTVDSNKQMFWPGQNTYETSNTTIPANTPDGEYLLRVKQIALHMASQPNKVQFYLACTQIKITGGRNGTPSPLVALPGAYKSTDPGILVDIYSMKPESYQPPGPPVWRG |
